Data set [1] deals with T1, Lin28a full-length (Mus musculus, UniProt Q8K3Y3 Q8K3Y3:1-209).
T1 sequence: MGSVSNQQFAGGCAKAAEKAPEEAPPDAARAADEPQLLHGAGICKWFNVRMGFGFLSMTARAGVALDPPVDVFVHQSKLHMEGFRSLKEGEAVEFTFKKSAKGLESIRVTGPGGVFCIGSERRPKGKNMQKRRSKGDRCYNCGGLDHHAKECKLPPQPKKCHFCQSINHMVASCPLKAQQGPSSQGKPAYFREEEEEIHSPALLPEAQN
In words: EMSA. Conditions: tags: His6 removed by TEV; label: 5'-32P; stem-loop with 3' single-stranded GGAG. The procedure: (§1) FIG. 9. Domain mapping and structural analysis of Lin28 protein, Related to FIG. 2. (A) EMSA of Lin28 truncations. […] Full-length preE-let-7d was used as probe, titrated with protein constructs indicated (left to right: 8 nM, 33 nM, 130 nM, 520 nM, 2.1 μM, 8.3 μM, 33.3 μM). (B) ¹⁵N-NOESY of the linker region. Homonuclear 1H/1H NOE spectral strips belonging to the residue numbers marked in red were taken from a 3D 15N-selected NOESY-HSQC, and only the amide region is shown for inter-residue backbone NOEs. Diagonal peaks are marked with a diagonal line and crosspeaks are marked with a cross. The linker region is missing inter-residue NOEs, while CCHC has amide-amide interactions evident from crosspeaks. (C) Plot of secondary shifts for Ca, CP, and C′ vs. residue number. Domain boundaries, consistent as in FIG. 2A, are marked with dashed grey lines. (D) EMSA of protein linker deletion constructs. Increasing amounts of protein (Lin28 35-187, with or without 9-residue internal deletion in the linker region) were added to radioactively labeled fragment of pre-let-7f-1 indicated. The concentrations of protein in each lane are as follows: 5 nM, 20 nM, 78 nM, 313 nM, 1.2 μM, 5 μM, 20 μM. (E) In vivo processing assay of pri-miR-122 and pri-miR-16, similar to main FIG. 2D. 293T cells (12 well) were co-transfected with Lin28 (100 ng) with pri-miR-122 or pri-miR-15-16 (750 ng). […]
(A gel shift assay detects complexes by their altered migration in electrophoresis.)

Data set [2] has as its target T2, Lin28a delta-delta (terminal truncations and 9-residue linker deletion) (Mus musculus, UniProt Q8K3Y3 SEQ:4-151).
T2 chain: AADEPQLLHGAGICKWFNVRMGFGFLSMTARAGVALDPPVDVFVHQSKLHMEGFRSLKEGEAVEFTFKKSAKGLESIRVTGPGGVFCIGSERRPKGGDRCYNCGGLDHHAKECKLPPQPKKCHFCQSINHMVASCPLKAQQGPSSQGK
In words: EMSA; 9-residue linker deletion supports binding; slightly lower affinity than full-length suggested. Conditions: tags: His6 removed by TEV; domain-swapped dimer in crystal); label: 5'-32P; stem-loop with 3' single-stranded GGAG. The text has this:
FIG. 2. Linker between CSD and CCHCx2 is flexible. See also FIG. 9. (A) Longitudinal (R1) and transverse (R2) relaxation rates and the ratio (R2/R1), plotted against the residue number. Relatively more dynamic regions are marked with a light yellow box. (B) Alignment of internal deletions in the linker, indicated with the number of amino acids deleted on left (SEQ ID NOS 84-87, respectively, in order of appearance). (C) EMSAs with preE-let-7d as probe, mixed with increasing concentrations (0.005, 0.02, 0.08, 0.3, 1.2, 5, 20 μM) of linker deletion constructs of Lin28(16-184): *, free probe; **, complex. (D) Quantitative RT-PCR results for in vivo levels of mature let-7g. Lin28Δ is truncated at both N and C termini. Lin28ΔΔ has both of the terminal extensions and the linker removed. The standard deviation is calculated from triplicate experiments; U6 RNA levels were used for normalization. (E) and (F) Western blots of Trizol bottom layer for transfections shown in (D).

Data set [3] deals with T3, Lin28a (16-184), CSD-linker-CCHCx2 (Mus musculus, UniProt Q8K3Y3 SEQ:4-172).
T3 chain: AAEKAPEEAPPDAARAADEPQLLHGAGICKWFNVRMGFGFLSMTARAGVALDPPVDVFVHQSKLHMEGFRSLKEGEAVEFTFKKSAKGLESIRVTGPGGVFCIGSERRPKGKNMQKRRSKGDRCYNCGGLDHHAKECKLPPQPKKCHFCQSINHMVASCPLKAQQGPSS
Kind of data set: EMSA; comparable affinity to full-length; Kd bins only in figure; 20 mM Tris 7.5, 100 mM NaCl, 50 uM ZnCl2, yeast tRNA. The note with it: tags: His6 removed by TEV (GSG remnant); label: 5'-32P; stem-loop with 3' single-stranded GGAG. Here is the method:
as §1

For data set [4], the target named is T2, Lin28a delta-delta (terminal …). In words: structure; crystal structure 2.8 A, Zn. Conditions: tags: His6 removed by TEV; domain-swapped dimer in crystal); stem-loop with 3' single-stranded GGAG. Here is the method: (§2) Crystals of all three complexes were produced by vapor diffusion, using the hanging drop method. Concentrated complexes (10 mg/mL) were mixed 1 μL:1 μL with reservoir solution, and crystals grew overnight. Reservoir solution contained 0.6M NaH₂PO₄, 1.4M K₂HPO₄ and 5% glycerol for preEM-let-7d and preEM-let-7f-1 complexes; for preEM-let-7g, it contained 0.1M Tris pH 8.0, 32% w/v PEG 4000, and 0.2M Sodium Acetate. Crystals were harvested with mother liquor supplemented with 20% glycerol and frozen in liquid nitrogen. Diffraction data was indexed and scaled using XDS (Kabsch, 2010) and SCALA (Evans, 2006) in a workflow provided by autoPROC (Vonrhein et al., 2011). Experimental phases were obtained for Lin28:pre-let-7d complex by anomalous scattering from zinc atoms (SAD), using HKL2MAP (Schneider and Sheldrick, 2002) and AutoSol (Terwilliger et al., 2009). The structures of Lin28: preEM-let-7f-1 and Lin28: preEM-let-7g were solved by molecular replacement with Lin28: preEM-let-7d as search model using Phaser (McCoy et al., 2007). Density modification and NCS averaging over 6 or 2 copies were performed with PHENIX (Adams et al., 2010) to obtain electron density maps for model building with COOT (Emsley and Cowtan, 2004) and PHENIX was used for further refinement. […]

Data set [5] deals with T4, Lin28b (Homo sapiens, UniProt Q6ZN17 Q6ZN17:1-250).
T4 sequence: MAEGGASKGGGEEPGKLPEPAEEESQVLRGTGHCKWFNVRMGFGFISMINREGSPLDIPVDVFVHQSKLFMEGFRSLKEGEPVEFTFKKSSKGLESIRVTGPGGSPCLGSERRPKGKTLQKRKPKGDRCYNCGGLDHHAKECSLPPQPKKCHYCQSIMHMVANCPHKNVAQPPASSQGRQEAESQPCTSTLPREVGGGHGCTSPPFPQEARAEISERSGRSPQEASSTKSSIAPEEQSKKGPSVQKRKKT
Kind of data set: EMSA; effects of preEM point mutations equivalent to mouse Lin28a. The note with it: stem-loop with 3' single-stranded GGAG.

The target of data set [6] is T5, Lin28a (Homo sapiens, UniProt Q9H9Z2 Q9H9Z2:2-209).
T5 sequence: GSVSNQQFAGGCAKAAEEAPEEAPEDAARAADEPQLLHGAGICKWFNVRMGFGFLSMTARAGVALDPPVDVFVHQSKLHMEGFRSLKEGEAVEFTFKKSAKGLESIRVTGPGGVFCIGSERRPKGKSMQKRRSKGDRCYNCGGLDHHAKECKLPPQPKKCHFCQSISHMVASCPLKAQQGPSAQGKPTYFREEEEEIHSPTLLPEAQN
Described as above. Conditions: stem-loop with 3' single-stranded GGAG.

The target in data set [7] is T3, Lin28a (16-184), CSD-linker-CCHCx2. Kind of data set: EMSA; minimal preE, sufficient for high-affinity binding; complex also studied by NMR. The note with it: tags: His6 removed by TEV (GSG remnant); stem-loop with 3' single-stranded GGAG.
The target in data set [8] is T2, Lin28a delta-delta (terminal …). Kind of data set: structure; crystal structure 2.9 A, Zn. Conditions: tags: His6 removed by TEV; domain-swapped dimer in crystal); stem-loop with 3' single-stranded GGAG. Here is the method:
as §2

For data set [9] the target is unchanged. Kind of data set: structure; crystal structure 2.0 A, Zn. Conditions: tags: His6 removed by TEV; domain-swapped dimer in crystal); stem-loop with 3' single-stranded GGAG. The procedure:
as §2

Data set [10] has the same target. Kind of data set: EMSA; probe is a pre-let-7f-1 fragment. Conditions: tags: His6 removed by TEV; domain-swapped dimer in crystal); label: 5'-32P.

B1: preE-let-7d (ssRNA)
RNA: UUAGGGCAGAGAUUUUGCCCACAAGGAGUU
Take B1: the binding result in data set [1], in data set [2] and in data set [3] was “binds” throughout.

B2: preEM-let-7f-1 (ssRNA)
RNA: GGGGUAGUGAUUUUACCCUGGAG
On to B2, for which the binding result in data set [4] was “binds”.

B3: preEM-let-7d (ssRNA)
RNA: GGGCAGAGAUUUUGCCCGGAG
As to B3, the binding result in data set [5], in data set [6], in data set [7] and in [8] was “binds” in each case.

B4: preEM-let-7g (ssRNA)
RNA: GGGGUCUAUGAUACCACCCCGGAG
Take B4: in data set [9], the binding result is recorded as “binds”.

B5: preE-let-7f-1 (ssRNA)
RNA: GUGGGGUAGUGAUUUUACCCUGUUUAGGAGAU
B5: in data set [10], the binding result was “binds”.

Values taken from US20150111954, “LIN28/LET-7 CRYSTAL STRUCTURES, PURIFICATION PROTOCOLS, AND MOLECULAR PROBES SUITABLE FOR SCREENING ASSAYS AND THERAPEUTICS” (PRESIDENT AND FELLOWS OF HARVARD UNIVERSITY, published 2015).
